This note sets out measurements from publication PMC10539308, “Acetylation reprograms MITF target selectivity and residence time”.

For series [1], the target named is Ac-K206 MITF DBD (Homo sapiens) (UniProt O75030). The experiment in a line: fluorescence anisotropy. To be noted: 10 mM Tris/HCl pH 7.5, 300 mM NaCl, 0.01% Triton X-100, 0.1 mg/mL BSA, 25 C, 5 min, 1.33 nM dsDNA, quadratic fit, n=3. In general terms: Polarisation of emitted light reports the rotation of a fluorescent probe.
The target of series [2] is T1, MITF DBD WT (UniProt Q08874 287-403). The experiment in a line: fluorescence anisotropy; 10 mM Tris/HCl pH 7.5, 300 mM NaCl, 0.01% Triton X-100, 0.1 mg/mL BSA, 25 C, 5 min, 1.33 nM dsDNA; quadratic fit, n=3. To be noted: protein: recombinant; tags: His (Ni-NTA purified; pETM-11); chain copies: 2; label: 3' fluorescein on strand 1; blunt (annealed with complementary oligonucleotide).
T1 sequence (Q08874 287-403): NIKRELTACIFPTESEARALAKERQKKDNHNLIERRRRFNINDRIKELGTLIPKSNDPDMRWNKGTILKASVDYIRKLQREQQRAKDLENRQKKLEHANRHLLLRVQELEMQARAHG

For series [3], the target named is T1, MITF DBD WT. The experiment in a line: fluorescence anisotropy; moderately reduced vs CLEAR-box; 10 mM Tris/HCl pH 7.5, 300 mM NaCl, 0.01% Triton X-100, 0.1 mg/mL BSA, 25 C, 5 min, 1.33 nM dsDNA; quadratic fit, n=3. The note with it: protein: recombinant; tags: His (Ni-NTA purified; pETM-11); chain copies: 2; label: 3' fluorescein on strand 1; blunt (annealed with complementary oligonucleotide).

Sequence of Ac-K206 MITF DBD (Homo sapiens) (O75030 whole entry): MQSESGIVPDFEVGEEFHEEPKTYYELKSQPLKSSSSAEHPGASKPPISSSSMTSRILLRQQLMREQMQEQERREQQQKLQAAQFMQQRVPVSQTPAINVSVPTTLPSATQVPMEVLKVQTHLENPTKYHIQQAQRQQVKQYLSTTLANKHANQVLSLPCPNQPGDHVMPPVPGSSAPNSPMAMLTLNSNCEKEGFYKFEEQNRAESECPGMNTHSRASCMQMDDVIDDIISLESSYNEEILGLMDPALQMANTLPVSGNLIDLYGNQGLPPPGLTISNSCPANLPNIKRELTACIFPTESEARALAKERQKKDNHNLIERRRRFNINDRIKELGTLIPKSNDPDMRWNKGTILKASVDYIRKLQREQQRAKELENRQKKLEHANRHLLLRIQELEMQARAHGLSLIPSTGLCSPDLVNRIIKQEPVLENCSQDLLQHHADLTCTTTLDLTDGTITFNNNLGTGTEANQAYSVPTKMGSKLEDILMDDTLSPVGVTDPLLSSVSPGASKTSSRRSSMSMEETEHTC

In the case of “GAGATCATGTGTTGAC (double strand) [M-box]”, in series [1], the binding signal (fold reduced vs Ac-K206 on CLEAR-box) worked out at 20.

Molecule “GAGATCACGTGATGAC (double strand) [CLEAR-box]” returned a binding signal (fold reduced vs WT on CLEAR-box) in series [1] of 3.

In the case of “GAGATCATGTGATGAC (double strand) [TYR enhancer]”, the binding signal in series [1] (scale: fold further reduced vs Ac-K206 on CLEAR-box) was 5.

B1: CLEAR-box (dsDNA)
DNA 1: GAGATCACGTGATGAC
DNA 2: GTCATCACGTGATCTC
In the case of B1, the binding result in series [2] is on record as “binds”.

B2: TYR enhancer (dsDNA)
DNA 1: GAGATCATGTGATGAC
DNA 2: GTCATCACATGATCTC
In the case of B2, in series [3], the binding result is given as “binds”.
